The values that follow come from US20230036161A1, “AGENT FOR USE IN THE TREATMENT AND PROPHYLAXIS OF POSTISCHEMIC TISSUE INJURY” (Eberhard Karls Universität Tübingen Medizinische Fakultät, priority 2020, published 2023).

The subject of experiment [1] is human cardiac myocytes (HMCs). The experiment in a line: Caspase 3 staining and caspase 3 ELISA in cardiac myocytes. The class given is cell-based. The following applies: 1 μg/ml; cardiomyocytes. The protocol:
Human cardiac myocytes (HMC-c; PromoCell, Heidelberg, Germany) were grown to confluence on chamber slides followed by 6 hours of stimulation with rhSEMA7A, rhlgG1 Fc, BSA, or staurosporine (Sigma-Aldrich, Munich, Germany), 1 μg/ml each. After fixation, cells were stained with rabbit polyclonal anticaspase3 (abcam, Cambridge, UK).

Experiment [2] has as its system Sema7a^loxP/loxP HBBCre+ animals. The experiment in a line: Murine myocardial ischemia and reperfusion model, reconstitution of Sema7a loxP/loxP HbbCre+ animals with rmSema7a. The class given is in vivo, mouse. From the text:
Sema7a^−/−mice were generated, validated and characterized as described in the prior art. The corresponding WT controls were bred as littermates of the Sema7a mice. In a subset of experiments, a newly generated Sema7a flox mouse line (Sema7a^loxP/loxP/Ozgene) on a C57BL/6 background was crossed with the following Cre recombinase-positive mouse lines to obtain tissue-specific gene deletion: Erythrocyte-specific HbbCre+, myocardial cell-specific Myh6Cre+; endothelial cell-specific Tie2Cre+; and immune cell-specific LysMCre+. Tissue-specific gene deletions of Sema7a mouse lines (Sema7a^loxP/loxP HbbCre+; Sema7a^loxP/loxP Myh6Cre+, […], and Sema7a^loxP/loxP LysMCre+) were used in the experiments. Sema7a^loxP/loxP Cre-negative (−) littermates were used as controls. […]
The Vectastain ABC kit (Linaris, Wertheim, Germany) was used for immunohistochemical staining. […] Histological sections were analyzed for the presence of PNCs by manual counting within 3 independent tissue sections of each animal at a magnification of […].
(§1) Troponin blood plasma levels of samples collected by central venous puncture after 120 minutes of reperfusion were measured for murine troponin I type 3 (TNNI3) using the SEA478Mu ELISA kit (Cloud-Clone Corp, Houston, USA).

A further experiment concerns GPlb-IL-4-tg platelets. Briefly: Flow chamber: thrombus formation on collagen in flow, blood of GPlb-IL-4tg mice. In kind it is cell-based, mouse. The following applies: shear rate 1000 s−1. The protocol:
(§2) Platelet adhesion in flow was measured by perfusion of murine whole blood on collagen-coated coverslips (200 μg/ml fibrillar type I collagen) at 1000 s^−1 or 400 s^−1, as indicated. Platelets were labeled with a DyLight 488-conjugated anti-GPIX Ig derivative ([…]) and treated with rmSema7a or IgG2A Fc for 5 minutes at 37° C. before perfusion. In the case of treatment with GPlb-blocking antibody, 100 μg/mouse p0p/B Fab was injected intravenously 20 minutes before blood collection for the experiment. In further experiments, blood from animals with […] GPlb (GPlb-IL4tg) was used.

The subject of a further experiment is neutrophils. The experiment in a line: Neutrophil rolling/adhesion, coated capillaries and intravital microscopy of cremaster. More on the design: species or system mouse. The following applies: in vitro and in vivo. The protocol:
Mice were anesthetized, and cremasal tissue was dissected under a Nikon 20×water immersion lens (NA=0.32). Neutrophils were resuspended with 20 μl of anti-Ly6G (Biolegend 127608) and platelets with 20 μl of platelet-specific FITC-labeled X488 antibody (emfret, Eibelstadt, Germany) in 200 μl and administered i.v. Videos of postcapillary cremaster venules 20-40 μm in diameter were recorded using a Hamamatsu Orca Flash 4.0 camera mounted on a dual-emission image splitter (optoSplit II, Cairn Research; UK) at a rate of 16 frames/s (for videos totaling 10 seconds) and with a resolution of 2048×1024 pixels mounted on a Nikon Eclipse Ci-L microscope (Nikon, Dusseldorf; Germany) operated by NIS elements Ar software. Videos were recorded before administration of rmSema7a i.v., and videos were recorded at 20-second intervals for 5 minutes after incubation for 15 minutes. Neutrophil velocity (μm/sec) was calculated from manually tracked cells, stationary neutrophils were counted (cell count/mm^2), platelet sedimentation on the vessel wall was measured (normalized MFI %/mm), transmigrated cells from the vasculature after 15 min exposure to rmSema7a were counted (cell count/mm^2), the distance of transmigrated cells measured in μm in all videos was calculated using NIS elements Ar software 4.20-64 bit processed (Nikon, Dusseldorf, Germany).

Another experiment relates to WT animals. The experiment in a line: Murine myocardial ischemia and reperfusion model, rmSema7a injected into WT animals. The class given is in vivo, mouse. The protocol:
This animal model has been described in detail in the prior art. Subgroups of animals received either recombinant mouse Sema7a (rmSema7a) or recombinant mouse IgG2A Fc (rmlgG2A Fc; control) intravenously before the start of the experiment or Sema7a antibody (abcam ab23578, Cambridge, UK; anti-Sema7a) or as control rabbit IgG sc-2027 (Santa Cruz Biotechnology, Santa Cruz, USA) 5 minutes before the start of reperfusion.
The Vectastain ABC kit (Linaris, Wertheim, Germany) was used for immunohistochemical staining. After inhibition of the nonspecific binding sites with avidin blocking solution (Vector), the sections were incubated with primary antibodies (rabbit anti-mouse CD41, abcam, Cambridge, UK) overnight at 4° C. Tissue sections were then incubated with biotinylated rabbit anti-IgG for 1 hour, followed by Vectastain ABC reagent for 30 minutes, then developed over DAB substrate. For PMN staining, the procedure was repeated using rat anti-mouse neutrophil antibody (BioRad, Serotec, Puchheim, Germany) and HistoGreen as substrate (Linaris, Wertheim, Germany). Counterstaining was performed with Nuclear Fast Red (Linaris, Wertheim, Germany). Histological sections were analyzed for the presence of PNCs by manual counting within 3 independent tissue sections of each animal at a magnification of […].
as §1
For flow cytometric analysis, the following antibodies were used and freshly prepared before the experiment: rat anti-mouse Ly6G (Biolegend, clone 1A8) labeled with BV421 (Biolegend 127628), rat anti-mouse CD42b-FITC (Emfret, clone Xia.G5), rat anti-mouse CD62P (BD Pharmingen, clone RB40.34) labeled with Alexa Fluor 647 (BD 563674), rat anti-mouse activated GPIlb/IIIa-PE (Emfret, clone JON/A).
After staining, sampling focused peripheral granulocytes by their granularity and surface expression of the lymphocyte antigen-6 complex, locus G (Ly-6G), referred to as SSC/Ly-6G+. The presence of the platelet surface marker CD42b on the surface of SSC/Ly-6G+ events distinguished SSC/Ly-6G+/CD42b+ platelet-neutrophil complexes (PNCs) from freely circulating SSC/Ly-6G+/CD42b- PMNs. These two populations were tested for their representation of the surface transmembrane glycoprotein P-selectin (CD62P) and activated GPIlb/IIIa (clone JON/A) (not shown).

In a further experiment the test system is WT platelets. The experiment in a line: Flow chamber: thrombus formation on collagen in flow, whole-blood perfusion. The class given is cell-based, mouse. The protocol:
as §2

B1: rhSEMA7A: recombinant human SEMA7A (protein, UniProt O75326 45-648, looked up)
Semaphorin-7A: QGHLRSGPRIFAVWKGHVGQDRVDFGQTEPHTVLFHEPGSSSVWVGGRGKVYLFDFPEGKNASVRTVNIGSTKGSCLDKRDCENYITLLERRSEGLLACGTNARHPSCWNLVNGTVVPLGEMRGYAPFSPDENSLVLFEGDEVYSTIRKQEYNGKIPRFRRIRGESELYTSDTVMQNPQFIKATIVHQDQAYDDKIYYFFREDNPDKNPEAPLNVSRVAQLCRGDQGGESSLSVSKWNTFLKAMLVCSDAATNKNFNRLQDVFLLPDPSGQWRDTRVYGVFSNPWNYSAVCVYSLGDIDKVFRTSSLKGYHSSLPNPRPGKCLPDQQPIPTETFQVADRHPEVAQRVEPMGPLKTPLFHSKYHYQKVAVHRMQASHGETFHVLYLTTDRGTIHKVVEPGEQEHSFAFNIMEIQPFRRAAAIQTMSLDAERRKLYVSSQWEVSQVPLDLCEVYGGGCHGCLMSRDPYCGWDQGRCISIYSSERSVLQSINPAEPHKECPNPKPDKAPLQKVSLAPNSRYYLSCPMESRHATYSWRHKENVEQSCEPGHQSPNCILFIENLTAQQYGHYFCEAQEGSYFREAQHWQLLPEDGIMAEHLLGHACALA
On to B1, for which, in experiment [1], the “pro-apoptotic effect assessed by caspase 3 activation” value is on record as “no direct pro-apoptotic effect”.

B2: rmSema7a: recombinant mouse Sema7a fusion protein (R&D SYSTEMS, Minneapolis, USA) (protein)
chain: QGHSRSGPRISAVWKGQDHVDFSQPEPHTVLFHEPGSFSVWVGGRGKVYHFNFPEGKNASVRTVNIGSTKGSCQDKQDCGNYITLLERRGNGLLVCGTNARKPSCWNLVNDSVVMSLGEMKGYAPFSPDENSLVLFEGDEVYSTIRKQEYNGKIPRFRRIRGESELYTSDTVMQNPQFIKATIVHQDQAYDDKIYYFFREDNPDKNPEAPLNVSRVAQLCRGDQGGESSLSVSKWNTFLKAMLVCSDAATNRNFNRLQDVFLLPDPSGQWRDTRVYGVFSNPWNYSAVCVYSLGDIDRVFRTSSLKGYHMGLPNPRPGMCLPKKQPIPTETFQVADSHPEVAQRVEPMGPLKTPLFHSKYHYQKVVVHRMQASNGETFHVLYLTTDRGTIHKVVESGDQDHSFVFNIMEIQPFHRAAAIQAISLDADRRKLYVTSQWEVSQVPLDMCEVYSGGCHGCLMSRDPYCGWDQDRCVSIYSSQRSVLQSINPAEPHRECPNPKPDEAPLQKVSLARNSRYYLTCPMESRHATYLWRHEENVEQSCEPGHQSPSCILFIENLTARQYGHYRCEAQEGSYLREAQHWELLPEDRALAEQLMGHARALA
modifications: left off: a dimerising Fc or GST
Turning to B2, in experiment [2] (injection of rmSema7a), the “reduction in infarct size, plasma TnI and PNCs seen in Sema7a loxP/loxP HbbCre+ animals” value is on record as “these results were reversed”. Further, the MIRI result in experiment [2] (ischemia 1 h, reperfusion 2 h, vs Fc control) is “increased MIRI”. Besides, the “adhesion or thrombus formation of GPlb-IL-4-tg platelets on collagen in flow” value with GPlb-IL-4-tg platelets is given as “does not affect”. Besides, the neutrophil adhesion result with neutrophils was “affected neutrophil adhesion”. The infarct size entry with WT animals (1 μg/mouse before reperfusion, compared with rmIgG2A Fc control) is “significantly increased infarct size”. Moreover, in the experiment on WT animals (compared with Fc controls), the “numbers of PNCs in tissue areas at risk (histological sections)” value is “decreased numbers of PNCs” and the “tissue damage in histological sections” value was “increased tissue damage”. Besides, in the experiment with WT animals (flow cytometry), the “PNCs extravasated into the myocardium in the AAR” value is on record as “more PNCs extravasated”; the “numbers of PNCs in the blood” value was “significantly increased numbers of PNCs”; the “signals for GPlb, P-selectin, and activated integrin αIIbβ3 (JON/A) on conjugates in the AAR” value is recorded as “significantly increased signals”; the “signals for the platelet markers GPlb, CD62P, and activated integrin αIIbβ3 (JON/A) on conjugates in blood” value is reported as “stronger signals”. Moreover, the “troponin I” value with WT animals (plasma, 120 min, compared with Fc control) is listed as “increased troponin I”. The “adhesion and thrombus formation of WT platelets on collagen in flow” value with WT platelets (shear rate 400 s^−1) is reported as “markedly enhances”. In the experiment with WT platelets (shear rate 1000 s^−1), the “adhesion and thrombus formation of WT platelets on collagen in flow” value was “markedly enhances”.
